Measured values: paper PMC6237807

Assays:
[1] = tested on: H-NS (15 kDa) (Vibrio cholerae A1552 (A1552-TntfoX)); assay: DNA affinity pull-down, LC-MS/MS
[2] = tested on: VCA0767 (TetR family transcriptional regulator, 29 kDa) (Vibrio cholerae A1552 (A1552-TntfoX)); assay: DNA affinity pull-down, LC-MS/MS
[3] = tested on: HupA, HU-alpha (9 kDa) (Vibrio cholerae A1552 (A1552-TntfoX)); assay: DNA affinity pull-down, LC-MS/MS
[4] = tested on: NdpA nucleoid-associated protein (38 kDa) (Vibrio cholerae A1552 (A1552-TntfoX)); assay: DNA affinity pull-down, LC-MS/MS
[5] = target: N-terminally Strep-tagII tagged wild-type QstR (Vibrio cholerae); assay: SEC; analytical SEC, Superdex 200 10/300 GL; 100 mM Tris-HCl pH 8.0, 300 mM NaCl, 1 mM EDTA; 0.5 ml/min; size estimated from a standard curve of protein standards

Substance	binding signal (total spectra) [1]	binding signal (total spectra) [2]	binding signal (total spectra) [3]	binding signal (total spectra) [4]	stoichiometry N [5]
qstR pull-down probe	185	0	26	10	
comEA pull-down probe	35	5	8	8	
N-terminally Strep-tagII tagged wild-type QstR (natural protein)					2
gyrA pull-down probe	16	0	8	6	
